Ends that are not written are not given here.
B1: Relaxin-3/Relaxin-1 (R3/R1) chimeric polypeptide (ligand, human)
chain 1: RAAPYGVRLCGREFIRAVIFTCGGSRW
chain 2: RPYVALFEKCCLIGCTKRSLAKYC
modifications: disulfide (positions not given here)
notes: domain: A-chain; Two chains joined by disulfide bonds; Made in COS-7 cells with furin, FLAG tag removed with enterokinase
B2: Relaxin-3/Relaxin-2 (R3/R2) chimeric polypeptide (ligand, human)
chain 1: RAAPYGVRLCGREFIRAVIFTCGGSRW
chain 2: QLYSALANKCCHVGCTKRSLARFC
modifications: disulfide (positions not given here); also: two chains joined by disulfide bonds, pairing not given here
notes: domain: A-chain; Two chains joined by disulfide bonds; FLAG tag removed
B3: Relaxin-3/INSL3 (R3/I3) chimeric polypeptide (ligand, human)
chain 1: RAAPYGVRLCGREFIRAVIFTCGGSRW
chain 2: NPARYCCLSGCTQQDLLTLC
modifications: disulfide (positions not given here)
notes: as for B2
B4: Relaxin-3/INSL4 (R3/I4) chimeric polypeptide (ligand, human)
chain 1: RAAPYGVRLCGREFIRAVIFTCGGSRW
chain 2: FDPFCCEVICDDGTSVKLC
modifications: disulfide (positions not given here)
notes: as for B2
B5: Relaxin-3/INSL5 (R3/I5) chimeric polypeptide (ligand)
chain 1: RAAPYGVRLCGREFIRAVIFTCGGSRW
chain 2: DLQTLCCTDGCSMTDLSALC
modifications: disulfide (positions not given here); also: two chains joined by disulfide bonds, places not given here
notes: Two chains joined by disulfide bonds; FLAG tag removed with enterokinase; also called R3/I5 chimera; I5/R3
B6: Relaxin-3/INSL6 (R3/I6) chimeric polypeptide (ligand, human)
chain 1: RAAPYGVRLCGREFIRAVIFTCGGSRW
chain 2: GYSEKCCLTGCTKEELSIAC
modifications: disulfide (positions not given here)
notes: as for B2
B7: human relaxin-3 (ligand)
chain 1: RAAPYGVRLCGREFIRAVIFTCGGSRW
chain 2: DVLAGLSSSCCKWGCSKSEISSLC
modifications: ends and bridges not checked; also: also used as 125I-labelled tracer
notes: domain: A-chain; Mature two-chain hormone; also called R3; INSL7
B8: human INSL3 (ligand)
chain 1: PTPEMREKLCGHHFVRALVRVCGGPRWSTEA
chain 2: AAATNPARYCCLSGCTQQDLLTLCPY
modifications: ends and bridges not checked; also: also used as 125I-labelled tracer

Assays:
human GPCR135 [1] = target: T1, human GPCR135 (human, UniProt Q9NSD7 1-469); test: cell-based or functional assay
T1 sequence: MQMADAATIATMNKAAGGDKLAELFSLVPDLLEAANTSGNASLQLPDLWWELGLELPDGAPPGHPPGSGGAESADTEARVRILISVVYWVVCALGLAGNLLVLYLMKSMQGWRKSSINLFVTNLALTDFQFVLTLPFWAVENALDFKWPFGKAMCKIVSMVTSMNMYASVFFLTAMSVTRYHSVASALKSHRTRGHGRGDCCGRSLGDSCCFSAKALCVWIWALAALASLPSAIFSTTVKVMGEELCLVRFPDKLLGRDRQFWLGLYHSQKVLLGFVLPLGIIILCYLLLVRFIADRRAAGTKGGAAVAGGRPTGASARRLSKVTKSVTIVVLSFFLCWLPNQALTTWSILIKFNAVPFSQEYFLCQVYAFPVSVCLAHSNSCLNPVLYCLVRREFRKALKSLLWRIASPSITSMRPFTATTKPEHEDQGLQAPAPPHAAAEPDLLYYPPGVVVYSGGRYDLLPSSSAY

human GPCR142 [2] = target: T2, human GPCR142 (human, UniProt Q8TDU9 1-374); test: cell-based or functional assay
human GPCR135 [3] = target: T1, human GPCR135; test: cell-based or functional assay; remark: listed apart in the source
human LGR7 [4] = target: T3, human LGR7 (human, UniProt Q9HBX9 1-757); test: cell-based or functional assay
T3 sequence (looked up): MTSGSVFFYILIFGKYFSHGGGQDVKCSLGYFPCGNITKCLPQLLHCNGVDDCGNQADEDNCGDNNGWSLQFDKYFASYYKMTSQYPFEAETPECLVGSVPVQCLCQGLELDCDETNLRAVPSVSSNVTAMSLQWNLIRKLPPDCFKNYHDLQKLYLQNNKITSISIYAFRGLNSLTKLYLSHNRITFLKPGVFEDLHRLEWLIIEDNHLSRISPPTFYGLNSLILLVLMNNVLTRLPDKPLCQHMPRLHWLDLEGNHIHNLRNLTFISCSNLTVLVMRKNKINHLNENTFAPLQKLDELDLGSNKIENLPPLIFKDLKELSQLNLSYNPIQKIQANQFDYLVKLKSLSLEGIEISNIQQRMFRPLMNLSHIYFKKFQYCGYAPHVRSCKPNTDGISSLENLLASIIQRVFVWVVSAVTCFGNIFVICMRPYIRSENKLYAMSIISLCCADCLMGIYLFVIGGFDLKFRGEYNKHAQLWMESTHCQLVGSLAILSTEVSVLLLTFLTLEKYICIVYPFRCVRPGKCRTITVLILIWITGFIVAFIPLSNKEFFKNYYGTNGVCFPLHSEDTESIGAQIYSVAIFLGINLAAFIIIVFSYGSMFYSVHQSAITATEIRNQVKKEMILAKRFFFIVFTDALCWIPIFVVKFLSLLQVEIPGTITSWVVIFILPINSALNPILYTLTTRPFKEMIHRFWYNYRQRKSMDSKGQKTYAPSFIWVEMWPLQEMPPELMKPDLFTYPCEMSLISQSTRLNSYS

human LGR8 [5] = target: T4, human LGR8 (human, UniProt Q8WXD0 1-754); test: cell-based or functional assay
human LGR8 [6] = target: T4, human LGR8; test: competition with 100 pM [125I]-INSL3, live COS-7 cells with human LGR8
human LGR7 [7] = target: T3, human LGR7; test: competition with 100 pM [125I]-relaxin-3, live COS-7 cells with human LGR7
human GPCR135 [8] = target: T1, human GPCR135; test: competition with 100 pM [125I]-relaxin-3, COS-7 membranes with human GPCR135
human GPCR142 [9] = target: T2, human GPCR142; test: competition with 100 pM [125I]-relaxin-3, COS-7 membranes with human GPCR142
human GPCR142 [10] = target: T2, human GPCR142; test: cell-based or functional assay; remark: listed apart in the source
human LGR8 [11] = target: T4, human LGR8; test: radioligand competition with [125I]-INSL3, human LGR8; lower end tied to R3/I3 by Table 1
human LGR8 [12] = target: T4, human LGR8; test: competition with 100 pM [125I]-INSL3, live COS-7 cells expressing human LGR8; ND denotes no activity was detected
human LGR7 [13] = target: T3, human LGR7; test: competition with 100 pM [125I]-relaxin-3, live COS-7 cells expressing human LGR7; ND denotes no activity was detected
human LGR7 [14] = target: T3, human LGR7; test: radioligand competition, human LGR7 (Table 1 prints 724 nM)
human GPCR135 [15] = target: T1, human GPCR135; test: discussion of the radioligand binding results of Examples 3-5
human LGR7 [16] = target: T3, human LGR7; test: as above
rat GPCR135 [17] = target: T5, rat GPCR135 (rat, UniProt Q5Y987 29-469); test: competition with 100 pM [125I] human R3, COS-7 membranes with rat GPCR135
T5 construct: whole, on cells; also called rat recombinant GPCR135

rat LGR7 = target: T6, rat LGR7 (rat, UniProt Q6R6I6 1-758); test: competition with 100 pM [125I] human relaxin-2, COS-7 membranes with rat LGR7
T6 construct: whole, on cells; Membranes of COS-7 cells transiently expressing rat LGR7; also called rat recombinant LGR7
T6 sequence (looked up): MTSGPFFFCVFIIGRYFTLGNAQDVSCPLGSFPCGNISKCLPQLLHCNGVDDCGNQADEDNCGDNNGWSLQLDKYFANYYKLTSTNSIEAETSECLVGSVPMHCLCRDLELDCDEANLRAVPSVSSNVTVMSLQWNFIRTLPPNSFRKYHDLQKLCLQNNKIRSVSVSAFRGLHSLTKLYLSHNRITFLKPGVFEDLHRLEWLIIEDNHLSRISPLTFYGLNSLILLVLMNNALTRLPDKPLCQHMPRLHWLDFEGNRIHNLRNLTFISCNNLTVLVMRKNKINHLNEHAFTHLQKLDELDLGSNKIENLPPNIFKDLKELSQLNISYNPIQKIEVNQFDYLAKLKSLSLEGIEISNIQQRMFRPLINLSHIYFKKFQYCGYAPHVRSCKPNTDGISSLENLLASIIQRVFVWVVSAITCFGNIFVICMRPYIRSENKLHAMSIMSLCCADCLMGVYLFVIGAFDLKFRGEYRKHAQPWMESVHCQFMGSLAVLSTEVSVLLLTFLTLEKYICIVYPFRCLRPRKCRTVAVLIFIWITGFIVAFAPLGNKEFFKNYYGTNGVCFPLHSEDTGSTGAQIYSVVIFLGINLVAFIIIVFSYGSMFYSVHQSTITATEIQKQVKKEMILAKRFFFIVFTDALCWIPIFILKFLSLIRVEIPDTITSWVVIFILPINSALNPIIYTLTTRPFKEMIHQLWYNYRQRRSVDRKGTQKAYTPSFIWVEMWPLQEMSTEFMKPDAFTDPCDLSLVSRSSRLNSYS

rat GPCR135 [18] = target: T5, rat GPCR135; test: ratio of IC50 values from radioligand competition on rat GPCR135 and rat LGR7
human LGR7 [19] = target: T3, human LGR7; test: radioligand competition, human LGR7 (Table 1 prints 12.9)
human LGR7 [20] = target: T3, human LGR7; test: cell-based or functional assay; remark: listed apart in the source
rat GPCR135 [21] = target: T5, rat GPCR135; test: quantitative receptor autoradiography, displacement of 7 pM [125I]R3/I5 from rat brain sections; cortex; unit from paragraph 235
rat GPCR135 [22] = target: T5, rat GPCR135; test: quantitative receptor autoradiography, displacement of 7 pM [125I]R3/I5 from rat brain sections; olfactory bulb; unit from paragraph 235
rat GPCR135 [23] = target: T5, rat GPCR135; test: quantitative receptor autoradiography, displacement of 7 pM [125I]R3/I5 from rat brain sections; superior colliculus; unit from paragraph 235
human LGR8 [24] = target: T4, human LGR8; test: cell-based or functional assay; remark: listed apart in the source

T4 sequence (Q8WXD0 whole entry): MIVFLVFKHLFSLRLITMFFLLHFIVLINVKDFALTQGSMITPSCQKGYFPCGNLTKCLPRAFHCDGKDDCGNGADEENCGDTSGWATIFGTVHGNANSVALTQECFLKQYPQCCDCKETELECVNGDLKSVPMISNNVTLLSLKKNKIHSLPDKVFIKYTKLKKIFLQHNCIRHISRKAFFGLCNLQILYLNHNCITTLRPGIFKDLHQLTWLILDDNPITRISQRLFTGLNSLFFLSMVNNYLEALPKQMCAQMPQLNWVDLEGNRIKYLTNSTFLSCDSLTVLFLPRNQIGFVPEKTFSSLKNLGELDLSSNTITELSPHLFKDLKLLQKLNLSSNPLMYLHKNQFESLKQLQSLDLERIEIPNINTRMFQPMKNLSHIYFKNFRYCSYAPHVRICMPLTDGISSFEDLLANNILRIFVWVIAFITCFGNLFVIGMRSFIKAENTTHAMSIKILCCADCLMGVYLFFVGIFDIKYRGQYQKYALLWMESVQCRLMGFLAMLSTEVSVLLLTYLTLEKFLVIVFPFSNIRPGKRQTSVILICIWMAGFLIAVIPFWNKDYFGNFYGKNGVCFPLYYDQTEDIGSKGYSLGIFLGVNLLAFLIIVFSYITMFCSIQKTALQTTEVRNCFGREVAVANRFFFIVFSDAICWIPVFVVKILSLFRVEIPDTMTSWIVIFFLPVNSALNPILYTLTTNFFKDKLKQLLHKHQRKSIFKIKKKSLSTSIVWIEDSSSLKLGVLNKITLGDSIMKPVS
T2 sequence (Q8TDU9 whole entry L329S, form in doubt): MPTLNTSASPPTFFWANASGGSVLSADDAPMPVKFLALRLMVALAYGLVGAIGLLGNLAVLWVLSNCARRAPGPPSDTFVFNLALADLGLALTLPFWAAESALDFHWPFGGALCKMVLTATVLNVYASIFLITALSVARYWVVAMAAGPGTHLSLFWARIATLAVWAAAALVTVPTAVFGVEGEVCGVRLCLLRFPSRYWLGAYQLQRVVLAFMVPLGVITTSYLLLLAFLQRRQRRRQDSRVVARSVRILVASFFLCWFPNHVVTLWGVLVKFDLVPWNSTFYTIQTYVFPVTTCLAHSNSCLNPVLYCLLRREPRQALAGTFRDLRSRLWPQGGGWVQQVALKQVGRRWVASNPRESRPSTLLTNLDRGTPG

Binder | EC50, inhibition of forskolin stimulated β-galactosidase expression (human GPCR135 [3]) [nM] | EC50, ligand stimulated β-galactosidase expression (human LGR7 [4]) [nM] | EC50, ligand stimulated β-galactosidase expression (human LGR8 [5]) [nM] | IC50 (human LGR8 [6]) [nM] | IC50 (human LGR7 [7]) [nM] | IC50 (human GPCR135 [8]) [nM] | IC50 (human GPCR142 [9]) [nM] | EC50, inhibition of forskolin stimulated β-galactosidase expression (human GPCR142 [10]) [nM] | binding result (human LGR8 [12]) | other results
RAAPYGVRLCGREFIRAVIFTCGGSRW [synthetic human relaxin-3 B-chain] | – | – | – | – | – | – | – | – | – | inhibition of forskolin-stimulated β-galactosidase activity in SK-N-MC/β-gal cells, EC50 (human GPCR135 [1]): 88 nM; inhibition of forskolin-stimulated β-galactosidase activity in SK-N-MC/β-gal cells, EC50 (human GPCR142 [2]): 125 nM
B1 | 1.8 | 4.5 | > 1000 | > 1000 | 5.1 | 2.9 | 2.6 | – | – | –
B2 | 1.1 | 1.1 | 575 | 615 | 1.5 | 1.2 | 1.8 | 1.4 | – | –
B3 | – | 2.5 | 258 | 475 | 2.3 | – | 3.5 | 2.9 | – | IC50 (human LGR8 [11]): 500 nM
B4 | > 1000 | – | – | – | – | > 1000 | > 1000 | > 1000 | no binding | binding result (human LGR7 [13]): no binding (tested: 1 µM)
B5 | 0.45 | 412 | – | – | 724 | 0.68 | 1.4 | 0.91 | no binding | IC50 (human LGR7 [14]): ~500 nM; Kd (human GPCR135 [15]): ~0.5 nM; Kd (human LGR7 [16]): ~500 nM; IC50 (rat GPCR135 [17]): 0.5 nM; IC50 (rat LGR7): > 400 nM; fold selective over rat LGR7 (rat GPCR135 [18]): 800 fold
B6 | 8.4 | 13.7 | – | – | 12.9 | 9.5 | 11.3 | 11.2 | no binding | IC50 (human LGR7 [19]): 15 nM
B7 | – | – | – | – | – | – | – | – | – | stimulation of β-galactosidase activity in SK-N-MC/β-gal cells, EC50 (human LGR7 [20]): 1.4 nM; IC50 (rat GPCR135 [21]): 0.4 nM; IC50 (rat GPCR135 [22]): 0.3 nM; IC50 (rat GPCR135 [23]): 0.3 nM
B8 | – | – | – | – | – | – | – | – | – | induction of β-galactosidase activity in SK-N-MC/β-gal cells, EC50 (human LGR8 [24]): 0.16 nM

Source: patent EP1789452B1 (Janssen Pharmaceutica NV, dated 2006)
